Biological target: the molecule itself
Assay: dynamic light scattering; TRAF2-C 4 uM in kinase buffer (20 mM Tris-HCl pH 7.6, 150 mM NaCl, 10% glycerol); 20-35 °C, where the particle distribution is sharp and mono-disperse

B1: TRAF2-C, C-terminal domain truncated form of TNF Receptor Associated Factor 2 (TRAF2) (domain or fragment, human, UniProt Q12933 310-501, looked up)
chain: DQDKIEALSSKVQQLERSIGLKDLAMADLEQKVLEMEASTYDGVFIWKISDFARKRQEAVAGRIPAIFSPAFYTSRYGYKMCLRIYLNGDGTGRGTHLSLFFVVMKGPNDALLRWPFNQKVTLMLLDQNNREHVIDAFRPDVTSSSFQRPVNDMNIASGCPLFCPVSKMEAKNSYVRDDAIFIKAIVDLTGL
notes: human TRAF2, C-terminal domain (TRAF2-C), residues 310-501; It describes the protein as a trimer in equilibrium with dimers and monomers; also called TRAF2-C domain; source: E. coli BL21 (DE3), purified (NiNTA, Sephadex G25)
binding result: binds

From PMC8198530, “The Odd Faces of Oligomers: The Case of TRAF2-C, A Trimeric C-Terminal Domain of TNF Receptor-Associated Factor” (International Journal of Molecular Sciences, 2021)
